For five substances, Kd and K half results are on record in publication PMC3950707.

The test system of data set [1] is LexA. Put plainly: single-molecule FRET (smTIRF), koff/kon. As to conditions: smTIRF and PIFE on DNA: 10 mM Tris-HCl pH 8.0, 130 mM NaCl, 10% glycerol, 0.005% Tween20, 1% BME (0.1 mg/ml BSA in smTIRF and LexA PIFE), nucleosome smTIRF and ….
Data set [2] concerns Gal4(1-147) (Saccharomyces cerevisiae). Briefly: ensemble PIFE. As to conditions: 100 pM DNA (titration-limited), Hill 1.5; legend error 5; internal aminoC6dT in both primers; smTIRF and PIFE on DNA: 10 mM Tris-HCl pH 8.0, 130 mM NaCl, 10% glycerol, 0.005% Tween20, 1% BME (0.1 mg/ml BSA in smTIRF and LexA PIFE); nucleosome smTIRF and ….
For data set [3] the test system is unchanged. Put plainly: EMSA. Particulars: 200 pM DNA (titration-limited), Hill 1.5; legend 240 +/- 10; poly-dIdC; internal aminoC6dT in both primers; smTIRF and PIFE on DNA: 10 mM Tris-HCl pH 8.0, 130 mM NaCl, 10% glycerol, 0.005% Tween20, 1% BME (0.1 mg/ml BSA in smTIRF and LexA PIFE); nucleosome smTIRF and …. A general note: A gel shift assay detects complexes by their altered migration in electrophoresis.

The test system is the same in data set [4]. Briefly: single-molecule PIFE intensity histograms (smTIRF). Particulars: Hill 2; Fig 4 legend gives 5 +/- 1; koff << 5e-4 s-1; internal aminoC6dT in both primers; smTIRF and PIFE on DNA: 10 mM Tris-HCl pH 8.0, 130 mM NaCl, 10% glycerol, 0.005% Tween20, 1% BME (0.1 mg/ml BSA in smTIRF and LexA PIFE); nucleosome smTIRF and ….
The test system of data set [5] is LexA. Briefly: ensemble PIFE. As to conditions: 0.2 nM DNA, non-cooperative fit; aminoC6 at 5' end; aminoC6dT in reverse primer; smTIRF and PIFE on DNA: 10 mM Tris-HCl pH 8.0, 130 mM NaCl, 10% glycerol, 0.005% Tween20, 1% BME (0.1 mg/ml BSA in smTIRF and LexA PIFE); nucleosome smTIRF and ….
Data set [6] has as its system LexA. Briefly: single-molecule PIFE (smTIRF), koff/kon. Particulars: aminoC6 at 5' end; aminoC6dT in reverse primer; smTIRF and PIFE on DNA: 10 mM Tris-HCl pH 8.0, 130 mM NaCl, 10% glycerol, 0.005% Tween20, 1% BME (0.1 mg/ml BSA in smTIRF and LexA PIFE); nucleosome smTIRF and ….
In data set [7] the test system is Gal4(1-147) (Saccharomyces cerevisiae). Put plainly: single-molecule FRET (smTIRF), koff/kon. As to conditions: aminoC6 at 5' end; smTIRF and PIFE on DNA: 10 mM Tris-HCl pH 8.0, 130 mM NaCl, 10% glycerol, 0.005% Tween20, 1% BME (0.1 mg/ml BSA in smTIRF and LexA PIFE); nucleosome smTIRF and ….

The substance LexA dinucleosome array returned a dissociation constant Kd in the data set with LexA [1] (internal aminoC6dT) of 40000 nM.

Consider dsDNA-Gal4, for which the values for the K half in data set [2], in data set [3] and in data set [4] were 0.042 nM, 0.242 nM and 5 pM, respectively.

As to dsDNA-LexA, the values for the dissociation constant (Kd) with LexA [5] and in the data set on LexA [6] were 0.13 nM and 0.07 nM, respectively.

For nucDNA-Gal4 mononucleosome, the equilibrium dissociation constant (Kd) in data set [7] turned out to be 0.051 nM.

For the substance nucDNA-LexA mononucleosome, the Kd in the data set with LexA [1] (aminoC6 at 5' end) turned out to be 40000 nM.

Broadly, the Kd is a measure of binding affinity in units of concentration. Read a low Kd as a tighter complex.
